# Patent publication US20100086958A1, “NOVEL ENZYME” (priority 2008, published 2010)
# Legend:
# [1] = pH profile determination of FDH-catalysed formate oxidation; type: biochemical; conditions: pHs as low 4 or as high as 10.5
# Method: The pH profiles for BcenFDH1 (Bsp184FDH) and BspFDH2 (Bsp383FDH) catalyzed formate oxidation, shown in FIG. 13(a) and (b), were investigated by Uv/Vis spectrophotometry in a 96-well plate format. […] From this series, 170 μL was transferred into wells of the 96-well plate. 10 μL of the FDHs from a stock solution solution (64.1 μM for BcenFDH1 (Bsp184FDH) and 78.0 μM for BspFDH2 (Bsp383FDH)) were added into each well and equilibrated for 3 min at 30° C. The reaction was initiated by addition of 20 μL of NAD^+ solution from a freshly prepared stock (10 mM) using an 8-channel pipette. The plate was then immediately placed into the plate reader. The plate was shaken for 5 s to ensure thorough mixing, and then time-based measurements were recorded every 15 s for 10 min. The rate of formate oxidation was calculated using an extinction coefficient of 3.38 mM^−1 (for 200 μL).
# [2] = Steady state kinetics for formate oxidation; type: biochemical
# Method: (§1) BcenFDH1 (Bsp184FDH) and BspFDH2 (Bsp383FDH) catalyzed oxidation of formate to CO2 was monitored by UV/Vis spectrophotometry in a 96-well plate format. A series of eight solutions of formate (0-200 mM) were prepared by successive dilutions of a stock solution of 0.5 M sodium formate in 0.1 M sodium phosphate buffer, pH 7.0. From this series, 170 μL was transferred into wells of the 96-well plate. 10 μL of the FDHs from a stock solution (64.1 μM for BcenFDH1 (Bsp184FDH) and 78.0 μM for BspFDH2 (Bsp383FDH)) were added into each well and equilibrated for 3 min at 30° C. The reaction was initiated by addition of 20 μL of NAD^+ or NADP^+ solution from a freshly prepared stock (10 mM) using an 8-channel pipette. The plate was then immediately placed into the plate reader. The plate was shaken for 5 s to ensure thorough mixing, and then time-based measurements were recorded every 15 s for 10 min. The rate of formate oxidation was calculated using an extinction coefficient of 3.38 mM^−1 (for 200 μL), which was determined using NADH standards. Km and Vmax values were obtained by non-linear regression to the Michaelis-Menten equation (Eq.1 below) using Origin v7 (Microcal Software Inc.).
# [3] = Assay of enzyme activity (specific activity, U/mg); type: biochemical; conditions: unit = μmol formate oxidized per min in the presence of co-factor; This work
# Method: The reaction was initiated by addition of NAD^+. The total volume of the reaction mixture was 1 mL. Specific activity (U/mg enzyme) was defined as number of μmols of product formed per mg enzyme per minute.
# [4] = Steady state kinetics for NADP^+ (FDH-catalysed formate oxidation); type: biochemical
# Method: as §1
# (§2) Similar procedure were used for determination of Michaelis-Menten parameters for NAD^+ and NADP^+. A series of eight solutions of cofactor (0-75 mM) were prepared by successive dilutions of stock solutions. […] of sodium formate solutions (180 mM in well) were transferred into wells of the 96-well plate. 10 μL of the FDHs from a stock solution (64.1 μM for BcenFDH1 (Bsp184FDH) and 78.0 μM for BspFDH2 (Bsp383FDH)) were added into each well and equilibrated for 3 min at 30° C. The reaction was initiated by addition of 20 μL of NAD^+ or NADP^+ solutions using an 8-channel pipette. The plate was then immediately placed into the plate reader. The plate was shaken for 5 s to ensure thorough mixing, and then time-based measurements were recorded every 15 s for 10 min. The rate of formate oxidation was calculated using an extinction coefficient of 3.38 mM^−1 (for 200 μL), which was determined using NADH standards. Km and Vmax values were obtained by non-linear regression to the Michaelis-Menten equation as before.
# [5] = Thermal stability study (remaining activity after incubation); type: physicochemical
# Method: FIGS. 19 and 20—show the effect of temperature on the stability of the Bsp184FDH and Bsp383FDH enzymes. In FIG. […] In FIG. 20 (1) Bsp184FDH (2.1 mg/mL) and (2) Bsp383FDH (1.5 mg/mL) were incubated at 60° C. and 70° C. for 48 hours period in a similar way. Remaining activities were assayed under standard assay conditions and were expressed as the percentage of activities.
# Thermal stability for purified wild-type BcenFDH1 (Bsp184FDH) and BspFDH2 (Bsp383FDH) catalyzed formate oxidation were investigated by Uv/V is spectrophotometry in a 96-well plate format. The results are illustrated in FIGS. 19 and 20. […] In addition, time based-thermal stability for purified wild-type BcenFDH1 (Bsp184FDH) and BspFDH2 (Bsp383FDH) catalyzed formate oxidation were also investigated at 60° C. and 70° C. over 48 hours in a similar way. The samples were spun down briefly to remove any precipitations before use. 10 μL of heat-treated BcenFDH1 and BspFDH2 were added into each well and equilibrated for 3 min at 30° C. after adding 170 μL of 200 mM sodium formate (dissolving in 50 mM sodium phosphate buffer, pH 7.0.) The reaction was initiated by addition of 20 μL of NADP^+ solution from a freshly prepared stock of 20 mM using an 8-channel pipette. The plate was then immediately placed into the plate reader. The plate was shaken for 5 seconds to ensure thorough mixing. Time-based measurements were recorded every 10 s for 10 min. The rate of formate oxidation was calculated using the absorption coefficient of 3.38 mM^−1 (for 200 μL).
# [6] = Steady state kinetics for NAD^+ (FDH-catalysed formate oxidation); type: biochemical; conditions: cofactor NAD^+, 0.18M formate
# Method: as §1, §2
molecule,measurement,setting,value
"Bsp184FDH: wild type FDH from Burkholderia cenocepacia PC184, Seq ID No: 2, C-terminal His-tagged (protein, listed as Burkholderia cenocepacia, C-terminal His tag) MATVLCVLYPDPVDGYPPRYVRDTIPVITHYADGQTAPTPAGPPGFRPGELVGSVSGALGLRGYMEAHGHTLIVTSDKDGPDSEFERRLPEADVVISQPFWPAYLSAERIARAPKLKLALTAGIGSDHVDLDAAARARITVAEVTGSNSISVAEHVVMTTLALVRNYLPSHAVAQQGGWNIADCVSRSYDVEGMHFGTVGAGRIGLAVLRRLQPFGLQLHYTQRHRLDASIEQALALTYHADVASLASAVDIVNLQIPLYPSTEHLFDAAMIARMKRGAYLINTARAKLVDRDAVVNALTSGHLAGYGGDVWFPQPAPADHPWRTMPFNGMTPHISGTSLSAQARYAAGTLEILQCWFDGRPIRNEYLIVDGGTLAGTGAQSYRLT",activity at extreme pH,[1],highly active
same,kcat,[2]; formate oxidation with NADP^+,2.2073 ± 0.2553 s⁻¹
same,Km,[2]; formate oxidation with NAD^+,99.2 ± 7.11 mM
same,kcat,[2]; formate oxidation with NAD^+,0.34 ± 0.0123 s⁻¹
same,activity with NADP^+,[3],3.12 U/mg
same,activity with NAD^+,[3],0.48 U/mg
same,Km,"[4]; cofactor NADP^+, 0.18M formate",1.1 ± 0.1 mM
same,kcat NADP^+,"[4]; cofactor NADP^+, 0.18M formate",3.07 ± 0.083 s⁻¹
same,"cofactor preference for NADP^+, times greater than those of known FDHs such as CmetFDH",[4]; relative to CmetFDH,10^6 times
same,temperature at which the enzymes denature,[5],80 °C
same,activity lost upon incubation,[5]; 55° C. for 2 hours,no activity was lost
same,stability at room temperature,[5]; room temperature for weeks,stable
same,Km,[6],15 ± 4 mM
same,kcat NAD^+,[6],0.567 ± 0.12 s⁻¹
